The values that follow come from US20070293656A1, “COLLAGEN BINDING PEPTIDES” (Epix Pharmaceuticals, Inc., priority 2005, published 2007).

Bridge positions count the residues as written; N and C are the ends. Square brackets hold non-standard residues; d marks the D form. Primed or numbered codes have the meaning given here. Side chains are listed from the residue outwards. Ends that are not written are not given here. GdT″ = Gd-DTPA chelate conjugated through a thiourea; Dip = N[C@H](C(=O)O)C(c1ccccc1)c1ccccc1; Gd^T = not defined here; Gd^T″ = GdDTPA-thiourea

The target in experiment [1] is T1, rat collagen type I (Rattus norvegicus, UniProt P02454+P02466).
T1 construct: Rat collagen (acid soluble, type I, rat tail); purchased Upstate USA, Inc 08-115; host or cells: rat tail
Put plainly: Dried collagen assay (DCA): percent binding to dried rat collagen. To be noted: 5 μM peptide in PBS, pH 7.4, 2 hours at room temperature. How it is done: Rat collagen (acid soluble, type I, rat tail, Upstate USA, Inc, cat #08-115) is dialyzed against 10 mM Phosphate (NaH2PO4), pH 4.2 with three changes of the dialysis buffer. For the final assay, a 1:10 volume of 10×PBS (100 mM NaH2PO4, 1.5 M NaCl pH 7.4) is added to the collagen solution (final 1×PBS) and incubated at 37° C. for 2 hours. The gelation is typically 90%.
(§1) An additional 90 μL is reserved in a HPLC glass vial as a measure of the total concentration.

Experiment [2] deals with T2, human collagen type I (Homo sapiens, UniProt P02452+P08123).
T2 construct: Acid soluble human collagen extracted from placenta; purchased Sigma C7774 (lot #083K375); host or cells: human placenta
Put plainly: Dried collagen assay (DCA): percent binding to dried human collagen. To be noted: 5 μM peptide in PBS, pH 7.4, 2 hours at room temperature. As to the method: Acid soluble human collagen extracted from placenta (Sigma, cat #C7774, lot #083K375) is dissolved in 15 mM HCl (3.5 mg/ml) by vortexing and gently shaking for 3-4 hours at 4° C. The acid soluble collagen is […] against PBS, pH 7.4 (three buffer exchanges are used). The […] protein concentration is determined by the BCA method (Pierce, Cat #23225) using bovine collagen (Vitrogen, cat #FXP-019) as a reference standard. Percent gelation (fibril formation) of the collagen is determined by incubating 10 μM collagen (3.3 mg/ml) at 37° C. for 6 hours. A typical percent gelation is 60%.
as §1

Experiment [3] concerns the target T3, rat collagen (acid soluble, type I, rat tail, Upstate 08-115) (rat, UniProt P02454 152-1207; P02466 86-1125).
T3 construct: also called dried rat collagen; insoluble rat collagen
Kind of experiment: dried collagen assay.

The target of experiment [4] is rat collagen (acid soluble, type I, rat tail, Upstate 08-115) (rat) (UniProt P02454). Put plainly: dried collagen assay.
Experiment [5] has as its target human collagen type I (acid soluble, extracted from placenta, Sigma C7774) (human) (UniProt P02452). Kind of experiment: dried collagen assay.

T1 sequence (P02454 152-1207 limits assumed): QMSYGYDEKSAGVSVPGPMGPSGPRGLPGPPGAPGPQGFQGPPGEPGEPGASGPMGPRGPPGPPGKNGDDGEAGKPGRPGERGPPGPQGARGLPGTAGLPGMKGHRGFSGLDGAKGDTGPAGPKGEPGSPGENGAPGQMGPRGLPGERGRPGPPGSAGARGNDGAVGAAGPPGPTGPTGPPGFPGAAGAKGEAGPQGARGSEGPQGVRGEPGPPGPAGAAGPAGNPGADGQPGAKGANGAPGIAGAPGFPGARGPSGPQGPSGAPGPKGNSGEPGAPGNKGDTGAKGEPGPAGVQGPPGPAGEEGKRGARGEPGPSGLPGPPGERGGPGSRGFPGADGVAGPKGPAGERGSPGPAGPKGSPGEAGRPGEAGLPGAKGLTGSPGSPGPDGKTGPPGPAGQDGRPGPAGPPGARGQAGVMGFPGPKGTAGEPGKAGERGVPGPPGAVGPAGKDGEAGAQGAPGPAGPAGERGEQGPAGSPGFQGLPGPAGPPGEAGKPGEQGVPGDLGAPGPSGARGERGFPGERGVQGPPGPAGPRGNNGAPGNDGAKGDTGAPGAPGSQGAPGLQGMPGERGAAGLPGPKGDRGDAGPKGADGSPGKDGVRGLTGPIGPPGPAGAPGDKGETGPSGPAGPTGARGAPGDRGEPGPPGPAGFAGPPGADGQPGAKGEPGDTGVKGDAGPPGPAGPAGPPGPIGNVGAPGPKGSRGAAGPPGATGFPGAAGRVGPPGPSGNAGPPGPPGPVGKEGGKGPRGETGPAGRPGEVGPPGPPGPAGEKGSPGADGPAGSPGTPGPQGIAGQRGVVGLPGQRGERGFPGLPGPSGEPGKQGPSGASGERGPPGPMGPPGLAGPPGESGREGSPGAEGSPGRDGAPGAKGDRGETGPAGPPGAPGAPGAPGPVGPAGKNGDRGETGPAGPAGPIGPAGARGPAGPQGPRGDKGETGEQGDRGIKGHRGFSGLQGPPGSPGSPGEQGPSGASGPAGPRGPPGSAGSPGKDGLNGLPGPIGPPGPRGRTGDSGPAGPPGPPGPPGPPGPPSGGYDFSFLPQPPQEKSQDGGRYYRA
T1 sequence (P02466 86-1125 limits assumed): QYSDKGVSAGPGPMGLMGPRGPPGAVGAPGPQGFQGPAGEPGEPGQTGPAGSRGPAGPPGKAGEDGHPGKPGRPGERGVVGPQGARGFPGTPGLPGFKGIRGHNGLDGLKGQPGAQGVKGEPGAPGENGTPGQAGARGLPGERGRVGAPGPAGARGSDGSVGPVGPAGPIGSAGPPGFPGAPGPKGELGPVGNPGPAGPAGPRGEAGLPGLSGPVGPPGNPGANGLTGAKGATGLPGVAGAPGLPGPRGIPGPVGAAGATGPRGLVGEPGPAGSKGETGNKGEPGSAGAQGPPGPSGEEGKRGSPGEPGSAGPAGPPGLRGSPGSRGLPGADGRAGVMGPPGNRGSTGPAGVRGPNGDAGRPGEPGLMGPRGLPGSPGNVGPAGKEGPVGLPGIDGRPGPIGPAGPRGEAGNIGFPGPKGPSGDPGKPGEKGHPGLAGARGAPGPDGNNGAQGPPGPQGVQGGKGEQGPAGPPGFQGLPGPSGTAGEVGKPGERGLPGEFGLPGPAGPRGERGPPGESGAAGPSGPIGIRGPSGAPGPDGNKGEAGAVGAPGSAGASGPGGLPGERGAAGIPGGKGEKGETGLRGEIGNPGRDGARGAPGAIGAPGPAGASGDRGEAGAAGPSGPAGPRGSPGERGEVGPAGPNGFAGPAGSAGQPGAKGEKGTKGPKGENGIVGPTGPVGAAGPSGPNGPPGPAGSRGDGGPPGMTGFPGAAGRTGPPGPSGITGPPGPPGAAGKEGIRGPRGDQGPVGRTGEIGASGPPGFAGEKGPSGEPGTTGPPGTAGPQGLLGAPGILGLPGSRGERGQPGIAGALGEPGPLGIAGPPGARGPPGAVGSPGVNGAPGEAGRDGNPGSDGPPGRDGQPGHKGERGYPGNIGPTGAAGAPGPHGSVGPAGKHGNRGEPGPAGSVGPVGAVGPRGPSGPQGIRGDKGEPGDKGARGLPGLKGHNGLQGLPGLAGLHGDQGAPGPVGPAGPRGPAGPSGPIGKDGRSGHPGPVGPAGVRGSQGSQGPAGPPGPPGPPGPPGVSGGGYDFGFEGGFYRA
rat collagen (acid soluble, type I, rat tail, Upstate 08-115) (rat), sequence (P02454 152-1207 limits assumed, chain 1 of 2): as the sequence (P02454 152-1207 limits assumed) above
rat collagen (acid soluble, type I, rat tail, Upstate 08-115) (rat), sequence (P02466 86-1125 limits assumed, chain 2 of 2, further chain): as the sequence (P02466 86-1125 limits assumed) above
T3 sequence (P02454 152-1207 limits assumed, chain 1 of 2): as the sequence (P02454 152-1207 limits assumed) above
T3 sequence (P02466 86-1125 limits assumed, chain 2 of 2): as the sequence (P02466 86-1125 limits assumed) above
human collagen type I (acid soluble, extracted from placenta, Sigma C7774) (human), sequence (P02452 162-1218 limits assumed, chain 1 of 2): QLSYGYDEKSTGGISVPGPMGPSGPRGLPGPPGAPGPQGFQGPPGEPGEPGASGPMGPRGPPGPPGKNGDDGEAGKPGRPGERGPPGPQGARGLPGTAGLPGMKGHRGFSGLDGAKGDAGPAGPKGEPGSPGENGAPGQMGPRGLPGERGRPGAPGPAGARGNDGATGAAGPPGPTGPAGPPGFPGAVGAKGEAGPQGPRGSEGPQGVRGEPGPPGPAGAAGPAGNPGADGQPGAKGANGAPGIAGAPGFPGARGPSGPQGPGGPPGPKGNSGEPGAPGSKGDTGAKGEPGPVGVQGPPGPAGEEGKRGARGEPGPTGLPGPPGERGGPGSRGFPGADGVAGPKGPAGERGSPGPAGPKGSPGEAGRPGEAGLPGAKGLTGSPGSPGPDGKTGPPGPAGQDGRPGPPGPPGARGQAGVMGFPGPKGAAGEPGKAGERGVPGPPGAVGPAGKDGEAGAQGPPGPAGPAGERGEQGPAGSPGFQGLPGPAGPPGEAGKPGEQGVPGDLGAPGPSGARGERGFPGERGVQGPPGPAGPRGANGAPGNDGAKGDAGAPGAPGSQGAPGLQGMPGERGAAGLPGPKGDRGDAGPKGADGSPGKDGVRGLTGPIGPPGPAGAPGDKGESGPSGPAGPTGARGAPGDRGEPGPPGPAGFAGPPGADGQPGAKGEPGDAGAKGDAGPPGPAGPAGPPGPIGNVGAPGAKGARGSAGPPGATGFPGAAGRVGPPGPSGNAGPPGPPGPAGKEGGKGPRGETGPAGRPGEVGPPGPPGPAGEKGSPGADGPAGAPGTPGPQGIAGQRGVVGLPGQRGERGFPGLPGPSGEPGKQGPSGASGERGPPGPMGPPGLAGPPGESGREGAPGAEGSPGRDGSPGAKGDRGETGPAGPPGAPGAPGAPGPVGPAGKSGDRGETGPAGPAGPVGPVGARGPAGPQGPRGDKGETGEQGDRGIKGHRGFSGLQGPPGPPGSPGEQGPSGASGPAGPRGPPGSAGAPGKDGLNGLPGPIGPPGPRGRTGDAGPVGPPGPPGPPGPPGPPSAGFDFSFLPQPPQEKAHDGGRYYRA
human collagen type I (acid soluble, extracted from placenta, Sigma C7774) (human), sequence (P08123 80-1119 limits assumed, chain 2 of 2, further chain): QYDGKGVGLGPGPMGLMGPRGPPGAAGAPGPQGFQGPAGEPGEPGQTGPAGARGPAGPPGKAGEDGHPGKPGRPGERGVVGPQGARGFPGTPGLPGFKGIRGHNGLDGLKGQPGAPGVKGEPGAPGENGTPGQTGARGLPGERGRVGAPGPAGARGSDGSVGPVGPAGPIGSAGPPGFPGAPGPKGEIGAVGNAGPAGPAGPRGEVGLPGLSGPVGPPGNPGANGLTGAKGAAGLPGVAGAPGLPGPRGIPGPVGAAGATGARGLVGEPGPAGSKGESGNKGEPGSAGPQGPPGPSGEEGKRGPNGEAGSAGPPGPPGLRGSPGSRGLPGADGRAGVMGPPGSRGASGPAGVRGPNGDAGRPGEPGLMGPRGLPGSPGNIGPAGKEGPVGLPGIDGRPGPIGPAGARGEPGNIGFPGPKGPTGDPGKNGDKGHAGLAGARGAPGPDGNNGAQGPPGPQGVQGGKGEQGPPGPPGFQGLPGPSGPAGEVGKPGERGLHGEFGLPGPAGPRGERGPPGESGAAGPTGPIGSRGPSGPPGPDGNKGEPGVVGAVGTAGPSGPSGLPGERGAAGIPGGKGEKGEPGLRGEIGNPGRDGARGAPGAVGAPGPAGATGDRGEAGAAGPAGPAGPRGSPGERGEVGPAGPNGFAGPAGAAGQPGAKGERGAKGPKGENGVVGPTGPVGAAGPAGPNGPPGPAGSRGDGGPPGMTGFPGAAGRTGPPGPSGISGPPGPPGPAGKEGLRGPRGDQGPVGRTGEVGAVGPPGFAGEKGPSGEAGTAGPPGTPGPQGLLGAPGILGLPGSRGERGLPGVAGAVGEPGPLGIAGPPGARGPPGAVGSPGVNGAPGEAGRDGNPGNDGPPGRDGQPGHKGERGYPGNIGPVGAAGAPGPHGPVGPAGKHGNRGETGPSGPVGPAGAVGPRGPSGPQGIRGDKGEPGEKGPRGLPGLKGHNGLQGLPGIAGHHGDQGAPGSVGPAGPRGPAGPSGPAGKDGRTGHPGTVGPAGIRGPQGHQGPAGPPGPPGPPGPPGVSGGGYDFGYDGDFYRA
T2 sequence (P02452 162-1218 limits assumed): as the sequence (P02452 162-1218 limits assumed, chain 1 of 2) above
T2 sequence (P08123 80-1119 limits assumed): as the sequence (P08123 80-1119 limits assumed, chain 2 of 2, further chain) above

For the molecule “173 (QWTCSGDEYT[dW]HCNYE; disulfide 4-13 (inferred)) [compound 173]”, the “% Collagen Binding Dried Rat” value in experiment [1] was 4%. In addition, the “% Collagen Binding Dried Human” value in experiment [2] is recorded as 5%.

Take “165 (Q[dW]TCSGDEYTWHCNYE; disulfide 4-13 (inferred)) [compound 165]”: the “% Collagen Binding Dried Rat” value in experiment [1] was 4%. For the same molecule, in experiment [2], the “% Collagen Binding Dried Human” value came to 2%.

As for 37 (LWNCHGTDANWKCVLN) [compound 37], the “Dried Human Collagen Binding” value in experiment [2] turned out to be 7%.

For the molecule “168 (QWTC[dS]GDEYTWHCNYE; disulfide 4-13 (inferred)) [compound 168]”, in experiment [1], the “% Collagen Binding Dried Rat” value is 2%. Also, the “% Collagen Binding Dried Human” value in experiment [2] was found to be 3%.

For 39 (GWQCSGDASVWNCDWI) [compound 39], in experiment [2], the “Dried Human Collagen Binding” value was 6%.

2 (WGWCEWAQNNCWNY) [compound 2]: the “Dried Human Collagen Binding” value in experiment [2] turned out to be 14%.

“147 (QWTCSGDEYTAHCNYE; disulfide 4-13 (inferred)) [compound 147]”: the “% Collagen Binding Dried Human” value in experiment [2] is 5%.

As to 3 (PWWCHEMPSMCFGF) [compound 3], in experiment [2], the “Dried Human Collagen Binding” value worked out at 2%.

On to 36 (SWSCGGDHNAWKCQYS) [compound 36], for which the “Dried Human Collagen Binding” value in experiment [2] was found to be 7%.

As for “163 ([dY][dH][dA][dC][dY][dQ][dA]G[dC][dW][dI][dW]; disulfide 4-9 (inferred)) [compound 163]”, the “% Collagen Binding Dried Rat” value in experiment [1] turned out to be 53%.

Turning to “130 (WWACQKGRHDWEKCRWL; disulfide 4-14 (inferred)) [compound 130]”, the “Dried Human Collagen Binding” value in experiment [2] came out at 32%.

For “167 (QWT[dC]SGDEYTWHCNYE; disulfide 4-13 (inferred)) [compound 167]”, the “% Collagen Binding Dried Human” value in experiment [2] amounted to 4%.

Consider “174 (QWTCSGDEYTW[dH]CNYE; disulfide 4-13 (inferred)) [compound 174]”, for which the “% Collagen Binding Dried Human” value in experiment [2] was 5%.

Consider 65 (KWECVHTKGEWYCETK) [compound 65], for which, in experiment [2], the “Dried Human Collagen Binding” value is given as 7%.

“175 (QWTCSGDEYTWH[dC]NYE; disulfide 4-13 (inferred)) [compound 175]”: the “% Collagen Binding Dried Rat” value in experiment [1] is reported as 2%. In addition, the “% Collagen Binding Dried Human” value in experiment [2] is 2%.

On to “142 (QWTCSADEYTWHCNYE; disulfide 4-13 (inferred)) [compound 142]”, for which, in experiment [1], the “% Collagen Binding Dried Rat” value came to 6%.

Turning to “113 (FSECVWVNAYQCEYF; disulfide 4-12 (inferred)) [compound 113]”, in experiment [2], the “Dried Human Collagen Binding” value was determined as 3%.

Consider “176 (QWTCSGDEYTWHC[dN]YE; disulfide 4-13 (inferred)) [compound 176]”, for which the “% Collagen Binding Dried Rat” value in experiment [1] is listed as 2%. In addition, the “% Collagen Binding Dried Human” value in experiment [2] came out at 2%.

Take “112 (AKACSVHDEFGCLIS; disulfide 4-12 (inferred)) [compound 112]”: the “Dried Human Collagen Binding” value in experiment [2] was determined as 9%.

For “171 (QWTCSGDE[dY]TWHCNYE; disulfide 4-13 (inferred)) [compound 171]”, in experiment [1], the “% Collagen Binding Dried Rat” value is given as 6%.

As for 38 (GWSCHGDAADWPCQWS) [compound 38], the “Dried Human Collagen Binding” value in experiment [2] is reported as 6%.

Consider “159 (YHACYQAG[dC]WIW; disulfide 4-9 (inferred)) [compound 159]”, for which the “% Collagen Binding Dried Human” value in experiment [2] is recorded as 7%.

Take “169 (QWTCSG[dD]EYTWHCNYE; disulfide 4-13 (inferred)) [compound 169]”: in experiment [1], the “% Collagen Binding Dried Rat” value is 4%.

For “166 (QW[dT]CSGDEYTWHCNYE; disulfide 4-13 (inferred)) [compound 166]”, the “% Collagen Binding Dried Rat” value in experiment [1] is 3%. In experiment [2], the “% Collagen Binding Dried Human” value came to 2%.

With “137 (YHACYQAGCWAW; disulfide 4-9 (inferred)) [compound 137]”, the “% Collagen Binding Dried Rat” value in experiment [1] is reported as 7%.

B1: Comp ID 967 (peptide)
peptide: {Gd^T″}-GK([Gly-Gd^T″])WHCTTYFPHHYCL[Dip]G
modifications: disulfide 5-14 (inferred); not fully specified (C-terminus); printed as Gd^T-G-K(G.Gd^T)-WHCTTYFPHHYCL-Dip-G
In the case of B1, the “% bound” value in experiment [3] is 4%.

With GQWHCTTRFPHHXCLYG (not fully specified; Gd^T-GQWHCTTRFPHH-bip-CLYG) [Comp ID 903], the % bound came out at 5% in experiment [4] and 3% in experiment [5].

Take GQWHCTTRFPHHFCLYG (not fully specified; Gd^T-GQWHCTTRFPHHfCLYG) [Comp ID 901]: the % bound in experiment [4] and in experiment [5] was 2% throughout.

On to GQWHCTTLFPHHYCLYG (not fully specified; Gd^T-GQWHCTTLFPHHyCLYG) [Comp ID 907], for which the % bound in experiment [4] came out at 1%; in experiment [5], 6%.

As for GQWHCTTDFPHHYCLYG (not fully specified; Gd^T-GQWHCTTD-F(4-CN)-PHHYCLYG) [Comp ID 883], the results for the % bound in experiment [4] and in experiment [5] were 2% and 8%, respectively.

On to GQWHCTTRFPHHYXLYG (not fully specified; Gd^T-GQWHCTTRFPHHY-Pen-LYG) [Comp ID 906], for which, in experiment [3], the “% bound” value amounted to 5%.

B2: Comp ID 835 (peptide)
peptide: {Gd^T}-DWTCS[dA]DEYTWHCNYE
modifications: disulfide 4-13 (inferred); not fully specified (C-terminus); printed as Gd^T-DWTCSaDEYTWHCNYE; reading uncertain
As to B2, the % bound in experiment [4] is 9%; in experiment [5], 17%.

Turning to DWTCSGDEYTWYCNYE (not fully specified; Gd^T-DWTCSGDEYTWYCNYE) [Comp ID 842], the values for the % bound in experiment [4] and in experiment [5] were 9% and 23%, respectively.

For GQWHCTTDFPHHYCLYG (not fully specified; Gd^T-GQWHCTTD-F(3,4-OMe)-PHHYCLYG) [Comp ID 893], the % bound in experiment [4] was determined as 2%; in experiment [5], 4%.

As to {Gd^T}-DWTCS[dL]DEYTWHCNYE (disulfide 4-13 (inferred); not fully specified (C-terminus); reading uncertain) [Comp ID 847], the % bound in experiment [4] amounted to 7%; in experiment [5] it was 16%.

GQWACSGDEYTWHCNYE (not fully specified; Gd^T-GQWACSGDEYTWHCNYE) [Comp ID 840]: the % bound in experiment [4] turned out to be 3%; in experiment [5], 15%.

As to GQWHCTTRFPHAYCLYG (not fully specified; Gd^T-GQWHCTTRFPHAYCLYG) [Comp ID 878], the % bound in experiment [5] amounted to 8%; in experiment [3], 9%.

As to GQWHCTTDFPHHYCLYG (not fully specified; Gd^T-GQWHCTTD-F(4-NH2)(Gd^T)-PHHYCLYG) [Comp ID 885], in experiment [3], the “% bound” value stood at 9%.

In the case of GQWHCTDRFPHHYCLYG (not fully specified; Gd^T-GQWHCTDRFPHHYCLYG) [Comp ID 936], the “% bound” value in experiment [3] was 5%.

Take {GdT″}-GK([Gly-GdT″])WHCTTYFPHH[Dip]CLYG (disulfide 5-14; not fully specified (C-terminus)) [Comp ID 968]: the “% bound” value in experiment [3] was determined as 64%.

B3: Comp ID 836 (peptide)
peptide: {Gd^T}-DWTCS[dS]DEYTWHCNYE
modifications: disulfide 4-13 (inferred); not fully specified (C-terminus); printed as Gd^T-DWTCSsDEYTWHCNYE; reading uncertain
In the case of B3, the % bound in experiment [4] worked out at 8%; in experiment [5], 13%.
